Read-outs that look alike come from different tables or passages of the source.
B1: metabolically labeled LOS·MD-2 (monomeric complex of Neisseria meningitidis lipooligosaccharide and recombinant human His6-MD-2) (ligand)
chain: QKQYWVCNSSDASISYTYCDKMQYPISINVNPCIELKRSKGLLHIFYIPRRDLKQLYFNLYITVNTMNLPKRKEVICRGSDDDYSFCRALKGETVNTTISFSFKGIKFSKGKYKCVVEAISGSPEEMLFCLEFVILHQPNSN

Key:
[1] = molecular target: TLR4 ECD (Homo sapiens) (UniProt O00206); details: cited from earlier work
Target sequence in this assay (O00206 24-631): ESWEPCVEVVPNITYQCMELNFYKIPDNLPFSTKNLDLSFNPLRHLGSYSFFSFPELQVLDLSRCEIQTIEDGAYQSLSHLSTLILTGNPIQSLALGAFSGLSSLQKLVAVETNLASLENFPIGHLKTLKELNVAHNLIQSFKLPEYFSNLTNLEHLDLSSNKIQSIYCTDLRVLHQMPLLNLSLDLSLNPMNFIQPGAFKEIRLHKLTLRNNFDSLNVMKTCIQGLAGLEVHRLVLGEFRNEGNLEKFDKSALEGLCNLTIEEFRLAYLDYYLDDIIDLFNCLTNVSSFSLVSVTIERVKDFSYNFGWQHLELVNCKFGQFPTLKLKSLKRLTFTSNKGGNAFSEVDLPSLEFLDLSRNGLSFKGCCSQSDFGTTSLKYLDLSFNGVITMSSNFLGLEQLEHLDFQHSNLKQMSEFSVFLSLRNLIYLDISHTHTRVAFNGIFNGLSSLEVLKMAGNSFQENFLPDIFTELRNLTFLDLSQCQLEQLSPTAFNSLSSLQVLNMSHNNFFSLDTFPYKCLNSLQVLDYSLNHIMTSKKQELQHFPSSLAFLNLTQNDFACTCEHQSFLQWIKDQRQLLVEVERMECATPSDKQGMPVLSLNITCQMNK

[2] = molecular target: TLR4 ECD (Homo sapiens) (UniProt O00206); details: cited from earlier work; remark: listed apart in the source
Target sequence in this assay (O00206 24-631 D299G/T399I): as the sequence (O00206 24-631) above, with D276G, T376I counted along it

[3] = molecular target: full-length wild-type TLR4 on transiently transfected HEK293T cells (human, UniProt O00206 24-839); assay: radioligand binding
[4] = molecular target: FLAG-tagged TLR4 ectodomain-vlr-Fc protein (not stated | hagfish) (UniProt O00206); assay: radioligand binding

Chain of full-length wild-type TLR4 on transiently transfected HEK293T cells (O00206 24-839): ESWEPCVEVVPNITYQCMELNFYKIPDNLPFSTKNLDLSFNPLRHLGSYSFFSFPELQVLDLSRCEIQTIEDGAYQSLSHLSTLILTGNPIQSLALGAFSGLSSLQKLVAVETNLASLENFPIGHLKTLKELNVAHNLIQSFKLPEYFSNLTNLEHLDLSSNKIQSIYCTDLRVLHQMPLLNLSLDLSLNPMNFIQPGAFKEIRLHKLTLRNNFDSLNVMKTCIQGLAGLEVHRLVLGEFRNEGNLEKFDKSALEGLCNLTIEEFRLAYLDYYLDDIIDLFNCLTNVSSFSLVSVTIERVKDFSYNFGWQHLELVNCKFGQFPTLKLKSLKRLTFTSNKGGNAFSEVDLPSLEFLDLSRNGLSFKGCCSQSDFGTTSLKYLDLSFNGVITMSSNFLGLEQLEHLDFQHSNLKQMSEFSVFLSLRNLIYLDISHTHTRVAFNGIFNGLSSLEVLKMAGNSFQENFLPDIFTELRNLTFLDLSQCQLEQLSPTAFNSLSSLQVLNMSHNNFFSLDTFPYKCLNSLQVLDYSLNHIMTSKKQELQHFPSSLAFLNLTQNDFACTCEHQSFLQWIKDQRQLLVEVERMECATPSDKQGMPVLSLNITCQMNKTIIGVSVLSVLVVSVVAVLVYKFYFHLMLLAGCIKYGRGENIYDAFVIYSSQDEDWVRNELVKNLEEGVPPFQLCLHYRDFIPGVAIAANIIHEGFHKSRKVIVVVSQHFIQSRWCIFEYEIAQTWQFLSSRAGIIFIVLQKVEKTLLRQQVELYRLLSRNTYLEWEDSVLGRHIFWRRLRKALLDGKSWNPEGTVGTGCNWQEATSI

Molecule | Kd [1] [nM] | Kd [2] [nM] | Kd [3] [nM] | Kd [4] [nM]
LOS·MD-2 (from UniProt Q9Y6Y9) | 0.2 | 0.2 |  | 
B1 |  |  | 0.367 ± 0.136 | 0.117

— paper PMC3779530 (Innate immunity, 2013)
